Test results taken from patent US20130143798A1 (Novo Nordisk, published 2013).
Numbered stars: 1 amine (or outer) side, 2 acyl side, 3 side chain; on linkers, the order of the positions; unused ones are H or OH. Square brackets hold non-standard residues; d marks the D form. Side chains are listed from the residue outwards. Ends that are not written are not given here. * marks the point of attachment. C18 diacid = O=C(O)CCCCCCCCCCCCCCCCC(=O)*; pY = N[C@@H](Cc1ccc(OP(=O)(O)O)cc1)C(=O)O; γGlu = O=C(O)[C@H](CCC(=O)[*:2])N[*:1]; AEEA = NCCOCCOCC(=O)O

These binders were tested against T1, glucagon receptor (UniProt P47871 26-477, limits assumed) (assay: cell-based or functional assay).
T1 sequence (P47871 26-477 limits assumed): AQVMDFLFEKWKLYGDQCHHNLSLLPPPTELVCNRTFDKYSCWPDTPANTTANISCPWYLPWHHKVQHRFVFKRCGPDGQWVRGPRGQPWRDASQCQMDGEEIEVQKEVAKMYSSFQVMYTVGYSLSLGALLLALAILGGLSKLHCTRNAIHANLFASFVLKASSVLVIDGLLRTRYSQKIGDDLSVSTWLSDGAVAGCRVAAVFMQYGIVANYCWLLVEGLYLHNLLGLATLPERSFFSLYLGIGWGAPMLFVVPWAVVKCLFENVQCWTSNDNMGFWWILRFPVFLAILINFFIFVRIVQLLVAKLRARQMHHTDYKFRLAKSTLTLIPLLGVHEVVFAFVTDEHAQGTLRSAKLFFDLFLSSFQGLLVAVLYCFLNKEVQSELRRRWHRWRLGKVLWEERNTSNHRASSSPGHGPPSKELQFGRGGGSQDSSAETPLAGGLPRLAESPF

| Binder | Assay (I) Glucagon [EC50] |
| --- | --- |
| HSQGTFTSDYSKYLDSRRAQDFVK([AEEA-AEEA-γGlu-C18 diacid])[pY]LLNT | 0.171 nM |
| HSQGTFTSDYSKYLDK([AEEA-AEEA-γGlu-C18 diacid])KRAQEFVQWLLNT | 0.02 nM |
| HSQGTFTSDYSKYLDSRRAQDFVK([AEEA-AEEA-γGlu-C18 diacid])HLLNT | 0.194 nM |
| HSQGTFTSDYSKYLDSRRAQEFVK([AEEA-AEEA-γGlu-C18 diacid])RLLNT | 0.074 nM |
| HSQGTFTSDYSKYLDK([AEEA-AEEA-γGlu-C18 diacid])KKAQEFVQWLLNT | 0.02 nM |
| HSQGTFTSDYSKYLDSRRAQDFVQWLLNK([γGlu-γGlu-AEEA-AEEA-γGlu-C18 diacid]) | 0.095 nM |
| HSQGTFTSDYSKYLDSRQAQEFVK([AEEA-AEEA-γGlu-C18 diacid])WLLNT | 0.15 nM |
| HSQGTFTSDYSKYLDSRRAQDFVQWLLK([γGlu-γGlu-AEEA-AEEA-γGlu-C18 diacid])T | 0.055 nM |
| HSQGTFTSDYSKYLDSKRAQEFVK([AEEA-AEEA-γGlu-C18 diacid])WLLNT | 0.022 nM |
| HSQGTFTSDYSKYLDSRRAQDFVQWLLNTK (C-terminal Lys (position 30): N-epsilon acylated with the substituent printed in the name) [N^α-([Leu^27]Glucagonyl) …] | 0.056 nM |
| HSQGTFTSDYSKYLDSRRAQDFVQK([AEEA-AEEA-γGlu-C18 diacid])LLNT | 0.155 nM |
| HSQGTFTSDYSKYLDSRRAQDFVQWLLK([AEEA-AEEA-γGlu-C18 diacid])T | 0.022 nM |
| HSQGTFTSDYSKYLDSKKAQEFVK([AEEA-AEEA-γGlu-C18 diacid])WLLST | 0.009 nM |
| HSQGTFTSDYSKYLDSKRAQEFVQWLLNK([AEEA-AEEA-γGlu-C18 diacid])-NH2 (N-terminus assumed; SMILES CC(C)C[C@H](NC(=O)[C@H](CC(C)C)NC(=O)[C@H](Cc1c[nH]c2ccccc12)NC(=O)[C@H](CCC(N)=O)NC(=O)[C@@H](NC(=O)[C@H](Cc1ccccc1)NC(=O)[C@H](CCC(=O)O)NC(=O)[C@H](CCC(N)=O)NC(=O)[C@H](C)NC(=O)[C@H](CCCNC(=N)N)NC(=O)[C@H](CCCCN)NC(=O)[C@H](CO)NC(=O)[C@H](CC(=O)O)NC(=O)[C@H](CC(C)C)NC(=O)[C@H](Cc1ccc(O)cc1)NC(=O)[C@H](CCCCN)NC(=O)[C@H](CO)NC(=O)[C@H](Cc1ccc(O)cc1)NC(=O)[C@H](CC(=O)O)NC(=O)[C@H](CO)NC(=O)[C@@H](NC(=O)[C@H](Cc1ccccc1)NC(=O)[C@@H](NC(=O)CNC(=O)[C@H](CCC(N)=O)NC(=O)[C@H](CO)NC(=O)[C@@H](N)Cc1c[nH]cn1)[C@@H](C)O)[C@@H](C)O)C(C)C)C(=O)N[C@@H](CC(N)=O)C(=O)N[C@@H](CCCCNC(=O)COCCOCCNC(=O)COCCOCCNC(=O)CC[C@H](NC(=O)CCCCCCCCCCCCCCCCC(=O)O)C(=O)O)C(N)=O) [N^ε29 …] | 0.003 nM |

Target: T1, glucagon receptor
Experiment: cell-based or functional assay
Remark: another data set of the same source

| Binder | Assay (I) Glucagon [EC50] |
| --- | --- |
| HSQ[dF]TFTSDYSKYLDSRRAQDFVK([γGlu-γGlu-AEEA-AEEA-γGlu-C18 diacid])WLLST | 0.044 nM |
| HSQGTFTSDYSKYLDSRRAQDFVQWLLK([γGlu-γGlu-AEEA-AEEA-γGlu-C18 diacid])P | 0.189 nM |
| HSQGTFTSEYSKYLDSRRAQDFVK([γGlu-γGlu-AEEA-γGlu-C18 diacid])WLLST | 2.2 nM |
| HSQGTFTSDYSKYLDSRRAQDFVHWLLNTK (C-terminal Lys (position 30): N-epsilon acylated with the substituent printed in the name) | 0.1 nM |
| HSQGTFTSDYSKYLDSRRAEEFVK([γGlu-γGlu-AEEA-γGlu-C18 diacid])WLLST | 0.12 nM |
| HSQGTFTSDYSK([γGlu-γGlu-AEEA-AEEA-γGlu-C18 diacid])YLDSRRAQDFVQWLLNP | 1.58 nM |
| HSQGTFTSDYSKYLDK([γGlu-γGlu-AEEA-AEEA-γGlu-C18 diacid])RRAQEFVQRLLNT | 0.45 nM |
| HSQGTFTSDYSKYLDSRRAQEFVK([γGlu-γGlu-AEEA-γGlu-C18 diacid])WLLST | 0.053 nM |
| HSQGTFTSDYSKYLDSRRAEDFVK([γGlu-γGlu-AEEA-AEEA-γGlu-C18 diacid])WLLST | 0.307 nM |
| HSQGTFTSDYSKYLDK([γGlu-γGlu-AEEA-AEEA-γGlu-C18 diacid])RRAQDFVQWLLNT | 0.105 nM |
| HSQGTFTSDYSRYLDSRRAQDFVK([γGlu-γGlu-AEEA-AEEA-γGlu-C18 diacid])WLLNT | 0.127 nM |
| HSQGTFTSDYSKYLDSRRAQDFVQWLLK([γGlu-γGlu-γGlu-C18 diacid])T | 0.141 nM |
| HSQGTFTSDYSKYLDSRRAQDFVQWLLK([γGlu-γGlu-AEEA-AEEA-γGlu-C18 diacid])TP | 0.128 nM |
| HSQGTFTSDYSRYLDSRRAQDFVQWLK([γGlu-γGlu-AEEA-AEEA-γGlu-C18 diacid])NP | 2.11 nM |
| HSQGTFTSDYSKYLDSRRAQDFVQWLLNK([γGlu-γGlu-AEEA-AEEA-γGlu-C18 diacid]) | 0.095 nM |
| HSQGTFTSDYSKYLDSRRAQDFVQK([γGlu-γGlu-AEEA-AEEA-γGlu-C18 diacid])LLNT | 0.988 nM |
| HSQGTFTSDYSKYLDSRRAQDFVK([AEEA-AEEA-γGlu-γGlu-γGlu-C18 diacid])WLLST | 0.115 nM |
| HSQGTFTSDYSKYLDSRRAK([γGlu-γGlu-AEEA-AEEA-γGlu-C18 diacid])DFVQWLLNT | 0.058 nM |
| HSQGTFTSDYSKYLDSRRAQDFVQWLLK([AEEA-AEEA-γGlu-γGlu-γGlu-C18 diacid])T | 0.116 nM |
| HSQGTFTSDYSKYLDSRRAQDFVK([γGlu-γGlu-γGlu-C18 diacid])WLLST | 0.094 nM |
| HSQGTFTSDYSKYLDK([AEEA-AEEA-γGlu-γGlu-γGlu-C18 diacid])RRAQDFVQWLLNT | 0.081 nM |
| HSQGTFTSDYSKYLDSRRAQDFVQWLLK([γGlu-γGlu-AEEA-AEEA-γGlu-C18 diacid])T | 0.055 nM |
| HSQGTFTSDYSKYLDK([γGlu-AEEA-AEEA-γGlu-γGlu-C18 diacid])RRAQDFVQWLLNT | 0.122 nM |
| HSQGTFTSDYSKYLDSRRAQDFVQWLLK([γGlu-AEEA-AEEA-γGlu-γGlu-C18 diacid])T | 0.093 nM |
| HSQGTFTSDYSKYLDSRRAQDFVK([γGlu-AEEA-AEEA-γGlu-γGlu-C18 diacid])WLLST | 0.106 nM |
| HSQGTFTSDYSKYLDSRRAQDFVQWLLNTK (C-terminal Lys (position 30): N-epsilon acylated with the substituent printed in the name) [N^α-([Leu^27]Glucagonyl) …] | 0.056 nM |
| HSQGTFTSDYSKYLDSRRAQDFVK([γGlu-γGlu-AEEA-AEEA-γGlu-C18 diacid])WLLNP | 0.156 nM |
| HSQGTFTSDYSKYLDSRRAQDFVKWLLNTP (Lys 24: N-epsilon acylated with the substituent printed in the name) | 0.142 nM |
| HSQGTFTSDYSKYLDSRRAQDFVQWLK([γGlu-γGlu-AEEA-AEEA-γGlu-C18 diacid])NP | 1.17 nM |
